Five molecules from US20260159583A1 (CHIA TAI TIANQING PHARMACEUTICAL GROUP, published 2026) can be followed below.

Residue numbers refer to the chain shown, from its start.

The assay addresses T1, human GPRC5D protein (human, UniProt Q9NZD1 1-345).
T1 construct: also called hGPRC5D
The experiment in a line: FACS, subclone supernatant on H929 cells. As for the experimental part: An H929 (i.e., NCI-H929) cell suspension at a cell concentration of 3× 10⁵ cells/mL was plated into a 96-well U-bottom plate at 100 μL/well. The subcloned cell culture supernatant was added at 100 μL/well or an equal volume of culture medium (hereinafter referred to as Medium) was added. The mixture was mixed well, and then incubated at 4° C. for 1 h. The cells were washed with PBS containing 2% (by volume) of FBS. An AlexaFluor488-conjugated goat anti-mouse IgG+IgM (H+L) antibody (Jackson Immuno Research, Cat. No.: 115-545-044) was added, and the mixture was incubated at 4° C. for 1 h. The cells were washed with PBS containing 2% (by volume) of FBS and then resuspended. Fluorescence signals were detected on a flow cytometer (Sartorius, IQue3). The binding of the mouse anti-hGPRC5D antibody to H929 cells was analyzed by the mean fluorescence intensity (MFI) of staining.
(A flow cytometer gives signals particle by particle.)

T1 sequence (Q9NZD1 whole entry): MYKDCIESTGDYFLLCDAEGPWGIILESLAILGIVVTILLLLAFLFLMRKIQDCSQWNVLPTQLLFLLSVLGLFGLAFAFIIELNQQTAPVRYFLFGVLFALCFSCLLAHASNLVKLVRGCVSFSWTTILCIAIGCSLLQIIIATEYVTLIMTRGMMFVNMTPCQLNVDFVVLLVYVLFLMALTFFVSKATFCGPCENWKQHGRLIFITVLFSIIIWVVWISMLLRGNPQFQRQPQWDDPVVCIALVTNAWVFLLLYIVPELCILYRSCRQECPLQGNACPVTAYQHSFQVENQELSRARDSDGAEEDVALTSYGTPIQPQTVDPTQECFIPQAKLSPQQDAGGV

B1: mouse anti-hGPRC5D antibody mu-128 (antibody, V domains shown)
VH: DVQLVESGGGLVQPGGSRKVSCAASGFTFSSFGMHWVRQAPEKGLEWVAYISRGSSTIYYADTVKGRFTISRDNPKNTLFLQMTSLRSEDTAMYYCARSGYGSSSYYFDYWGQGTTLTVSS
VL: ENVLTQSPAIMSASPREKVTMTCRASSSIRSSYLHWYQQKSGASPKLWIYSTSNLASGVPARFSGSGSGTSYSLTISSVEAEDAATYYCQQFSGYPLTFGGGTKLEIK
notes: Tested as subcloned hybridoma culture supernatant
Regarding B1, the MFI was found to be 15700 MFI.

B2: mouse anti-hGPRC5D antibody mu-131 (antibody, V domains shown)
VH: EVQLQQSGPELVKPGASVKMSCKASGYTFTNYVMHWVKQKPGQGLEWIGYFNPYNDGTNYNEKFKGKATLTSDKSSNTAYMELSSLTSEDSAVYYCARGGVRRYFDVWGAGTTVTVSS
VL: DIQMTQSPSSLSASLGERVSLTCRASQDIGSNLNWLQLGPDGTIKRLIYATFSLDSGVPKRFSGSRSGSDYSLTISSLESEDFVDYYCQQYANFPPTFGGGTKLEIK
notes: as for B1
The molecule B2 displayed an MFI of 12800 MFI.

B3: mouse anti-hGPRC5D antibody mu-169 (antibody, V domains shown)
VH: EVKLVESGGGLVKPGASLKLSCAASGFTFSNYGMSWVRQTSDKRLEWVASISSGGGRIYYPDNVKGRFTISRENAKNTLYLQMSSLKSEDTALYYCTRHAMDNWGQGTSVIVSS
VL: QIVLTQSPAIMSASPGEKVTMTCSASSSVSNMYWYQQKSGTSPKRWIYDTSKLASGVPARFSGSGSGTSYSLTISSMEAEDASTYYCQQWSSNPLTFGAGTTLELK
notes: as for B1
Consider B3, for which the MFI worked out at 59300 MFI.

B4: mouse anti-hGPRC5D antibody mu-105 (antibody, V domains shown)
VH: EVQLQQSGPELVKPGASVKMSCKASGYTFTDYYMNWVKQSHGKSLEWIGYIYPNNGGTGYNQRFKGKATLTADKSSSTAYMELRSLTSEDSAVYYCARWGGTRLGYYAMDYWGQGTSVTVSS
VL: DIVMTQSQKFMSTSVGDRVSVTCKASQNVGTNVVWYQQKPGQSPKLLIYWASTRHTGVPDRFTGSGSGTDFTLTISNVQSEDLADYFCQQYSRYPYTFGGGTKLEIK
notes: as for B1
With B4, the MFI was 13200 MFI.

B5: mouse anti-hGPRC5D antibody mu-89 (antibody, V domains shown)
VH: EVQLVESGGDLVKPGGSLKLSCAASGFTFSSYGMSWVRQTPDKRLEWVATISSGGSYTYYPDSVKGRFTFSRDNAKNTLYLQMSSLKSEDTAMYYCVRQALRYHMDSWGQGTSVTVSS
VL: B4 VL with V34A, L46A, W50S, T53Y, H55Y, T56S, Y86F, S92Y, R93S, Y96W
notes: as for B1
As for B5, the MFI was determined as 11900 MFI.
